Results from a protein production outcome set (Wang et al. 2014).

Assay: label from the status in PepcDB records

With “MMAERPQPVAAPEEDEIDLGQLLGQIWHGKLWIGSATLAAGMLGLAWLANTAPTYRADTLLQLEEKASPLALPTALSELAGGEARSATEVEILRSRLVLGEAVAAFHLDWEAKPLRAPLVGQAVASGVLPLPEVEGLIRYDRGDSRIRLDLLEVPPEWVEEPILLTAMGEGQFALLLPDGREETGEVGRPLAVPDRGFGLRIGALEGVRGRQFVIRQLDETGAIGALRDRLTVAERGKQSSILEVGLTGRDPAEVQRTLGGIAEAYLRQNMTRSAAEAESSLEFIEGQLPEAQKAVRAAEDRLNAYRQAQQAIDLGFEGQSLLTQISAIETELRQLADQEEEIANRYTSNHPTYQRLLAMRGRLEERLAALRKEVSNLPETQREVFNFTRDLEVAQEVYLQLLNRAQELRVVKASTIGNVRIVDGARTAPEPVAPRRGRTLALALLLGALSGTGLVLGRAWLRRSVRGPEELDRLGLPVFATVLFAPAAVGNRKGRGLLPILALSDPNSATVEGIRSLRTSLHFGMLDAGSRSIALTSSAPAAGKSFTSVNLAVVAAQAGQSVCLIDADLRRGHLRRYFAVAKGTPGLAEYLAGEAELDELLRPGPVEGLAFLSTGQLPPNPSELLMRPRLAELVAELDRRFDLSIFDAPPVLAVTDPVVIGRAVGATIAVVRHDVTGLGEVEALIRQLQGAGVKPAGAVLNAYRPQRGSGRYGYGYGYRYRYDTGYRPQSGD” the protein production was “failed”.
For “MKNKKYLQFGGIAAVILIVLFLVSLFSSDTRNFQEVDTSVAMAQLDAGNVAEAQIDDREQRVRLTLREPITVDEREGVEEILAQYPARTAPAIFEKVEASNTDSYTTNVTQESFLMSMLSFILPMVIIFGLLMFFLTRMQGGGMFGIGGSKAKQLTKDMPTNTFADVAGAEEAVDELHEIKDFLEDPTRYEALGAKIPRGVLLYGPPGTGKTLLARAVAGEAGVPFYSISGSDFVEMFVGVGASRVRDLFKQAKENSPCIIFVDEIDAVGRARGSGMGGGHDEREQTLNQLLVEMDGFGDRQGVILMAATNRPDVLDPALLRPGRFDRQIPVTNPDLRGREQILEVHAKGKPFAPDADIKALAKRTAGMSGADLANVLNEAALLTARVGGNVITADALEEATDRVVGGPRRSGKVISEKEKKVTAYHEGGHTLSAWALEDIERVYKVTILARGRTGGHAMTAQEDDKGMYNRNELFARLVFAMGGRSAEELVFGEPTTGASADIEMATKIARSMVTEYGMSPAVGMVKYGQEQGDPFSGRGGGGNLDHSQEVAATIDTEVQFLLDKAHEVSYSILAEYRDHLDRLAEKLLEKETLRRPDLEALFDDIVPRKVAEVFPDESTRFPRQENREPVKTPVELALERGEEPPKKFSILEASRATRERRRKELEAQGKLPVQPASSAGVAPAAGAAAGSYGTPPPADWSVPGSAGKHRSRAEEQPAEQGFPAQTPAQAPEQSPDSSGGRPNPYATPTASGEHPGMKAYGFGDSELMDQSTGAEHTPGNVSQESPTEMIGFRLPDHERSDYPEKAQKESVLDASETTEMPVVPDQPIDGDSGKSAEGTQENPENEGDNRG”, the protein production was “failed”.
With “MNIQLNGQCRCIPETSSIAGLLAEEGFSERRVAVEVNGEIVPRTLHVNYVLREGDRVEIVHALGGG” the protein production was “failed”.
With “ADWPDRFNLRKPFEKLLYSGSRTGFRLASERSAKQAKGPRKADPDGLFDLSFSDDQQMLVDMLEGFALEVLRPLAHDADAEASLPAELLNQALELGLTHYGVGEVHGGMAGERTTVTTALIAEALAKGDLTLAAALLVPLSAANCIRRWGSPSQQAQWLPAFVSEEGAPLTAIAVNEPSLLFDPQKLATRARRKGSHYLLSGEKCLVLRGLEASRLIVAAKTDEGPALFLVEASAKGVERRAEPAMGLKAGGTARLRLKSVKVPADNRLAAEHFDYRAFLDHASLAWCALALGTGQAALDYVIAYCNEREAFGEPISHRQGVAFMVADIAIELDAMRLMVWRACALAERGQPFQREAYLARLLCAEKAMKIGTDAVQLLGGHGFTKEHPAERWYR” the protein production was “failed”.
For “TTHKFEHPLNEKTRIYLRVESLLRQAHLASGFADNHQYQLFFRALFDMVEIFEQIQLKSELAKDLEKQRLSYRHWLNVEGVDQEALNSLLNEIDVVHSQLMGAERFGQALKEDRFLSSIRQRFNLPGGSCCFDLPALHYWLHLPIERKKHDANQWQKSLKPLSDALTLWLKLARETGHFKAQIARAGFFQSDADEANILRLHIPMKYGVYPMISGHKNRFAIKFMAFENGQACSQDVEFELAVC”, the protein production was “not failed”.
In the case of “MRGILRMTVLAAAVFGVAGNALAEDWKLAKDEDGVKVYLSSVQGSKYKAYRGVTDIKADVATIEALQEDVKGSCKWIHACAEMKLLKQEGADAWTYSKIDMPWPVTGRDVVIHVTTEKTADGTVIRHLKADPTYIPEEKGQIRVPKLVGEWKLQPKGQGVTEVTYQVETEPGGSIPSWLANSFVVDAPLNTLKGLRSAAEKR”, the protein production is reported as “failed”.
For “MGWVTDWSAQAACRTTDPDELFVQGAAQNRAKAVCTGCPVRTECLADALDNRVEFGVWGGMTERERRALLRRRPTVTSWRRLLETARTEYERGVGIVPLDDDEVYENYAAVG”, the protein production was “failed”.
With “MAVSNDITFADYFYQWYEVNKLPHVSESTKRHYESAYKHIKDHFRHKLLKDIKRTEYQKFLNEYGLTHSYETIRKLNSYIRNAFDDAIHEGYVIKNPTYKAELHASVPAKTELEHHHHHH” the protein production was “not failed”.
With “MTVRLTFMCATAGGTTRDAVFGDGLLSERGLRRARAAGATLPPYSLAIRAPSVRCAQTAYALGLPTTLEPALRDLDYGTWRGRTVGEVVADEPYGYSAWLTDPDAAPHGGESVRRLCRRIANWLSSVPPYPGRALVITEPSVVRASLVHALSAPVTAFRHFDVPPLSTVSLTLSDGHWIVRPGRVTPDRVGTSRAVPTPYDAAEGRTALLWGEATPA” the protein production was “failed”.
With “MTIVWRDCFCVRSHSSNGLFMDVENNTAFWITGYQEARLGPVPEPTFPASETPYVIVRSRYSGISRGTESLVYNNQVPENEYQRMRAPFQEGEFPFPVKYGYASVGEVVDGPEALLGRNVFCLYPHQQRYAVPASAVLPLPAKVPAERAVLAANMETAVNGVWDGQPAVGDRIAVIGLGVVGLLVAWLVNRIPGVELIGVDTNEGRRSVAQALGVRFTTEPDIQNCDLVFHASGHPSGLAKALSLAGTDARVIELSWYGDTPVSVPLGHAFHPNRLTLKSSQVGQLSPERRPRWHHRRRLELALSMLSEPALDALISGESRFEQLPQVAGNILMPGADALCHRIVY” the protein production was “failed”.
For “SQLISADGKVFGSYAHSGDNRIYTRYNEISPDLIKALIATEDVRFRKHSGIDSKGLFRAVVKRGILNQKSGGGGSTITQQLAKLLYSPRTETKLGRLFQKPIEWVIAVKLERFYTKEEIITMYLNYFDFLYNAVGIKSAAYTYFGKQPADLKIEEAAVLVGMCKNPAYYNPVLHG”, the protein production was “failed”.
For “MKKLINIILLSLIFVFCFNLKVLANDNLESSKEKIDNDSRIERFYDYINNLETEEDILGNMSAKEYIMNYLESGEDPITLKKIGASILSYIFRELNIVLKFIASILVIALLSALLKNLQDAFNIEEGVTQIAFFACYALLIMLLTKSFFISLNLGKEVLTSIIDFMNVIVPVIVMLIATSGGVTSAVTIDPIVLGAVSITPRIYTYFLFPLILAYFTLQFVNNLSSEFKIDRMCKFIKQVVMISQGFILTIFVGILTLRGMTADTLDAVAVKTVKFAVDNFVPIVGKAFSDAITTVAGYSLAMKSVITSLGVIVIVVIVIYPIIKIGLMAICFKLTSAVIEPVVDSKISSSVETVGEALFMIMSCIISVSIMFFIMASMMATAGNFIVGG”, the protein production was “failed”.
In the case of “MDSFMESLNRLKEAHEKEVLGLQNKLLELNSERCRDAQRVEELFAKNHQLREQQKALKENLRVLENRLRAGLCDRCMVTQELARKKQLELENAHLQSLQHLCILTNEMNGLREENKILKEEVKRLRSLGDKTAPQAWEGTSEPPSPLPLPSPRQASGPP”, the protein production is reported as “failed”.
With “MELYQDNKLNNVGNIEINQCDGVIKKENDLHVSVIKPITKKIIHCDNMENKMKINAFYKPVELVEEIKNYVHKGDTHLVKLYEDFKNKKDKKVKMKNEYMTKLKNLHILNMINNKKKENECGVVNKNNIVHFNLFNENEDVTPKIETVYIPKLEKNIEVVSHLKENVNVDYTYMVPKPVVIPIEVPILKFRDHFKIIPIRKKIIPVIKYTDNIIYVDCCVEKPYIVYENVIIPVPCDIPIEQKKYIDKVPPI” the protein production was “failed”.
For “AEIDTSSIVEMVQGAEDAPVEVIEYASYTCPHCAAFHEGPYKKLKADFIDTGKVRFIYREVYFDRYGLWASMVARCAGPEKFFGISDLIYKGQAEWSRAGGPAEIAEELRKIGRLAGIENDKLEACLGDATKAQTLVAWYQEHATRDDINSTPSFMINGKKVENQAYDGFKALIEAELGN”, the protein production was “not failed”.
For “MQESGCRLEHPSATKFRNHVMEGDWDKAENDLNELKPLVHSPHAIVVRGALEISQTLLGIIVRMKFLLLQQKYLEYLEDGKVLEALQVLRCELTPLKYNTERIHVLSGYLMCSHAEDLRAKAEWEGKGTASRSKLLDKLQTYLPPSVMLPPRRLQTLLRQAVELQRDRCLYHNTKLDNNLDSVSLLIDHVCSRRQFPCYTQQILTEHCNEVWFCKFSNDGTKLATGSKDTTVIIWQVDPDTHLLKLLKTLEGHAYGVSYIAWSPDDNYLVACGPDDCSELWLWNVQTGELRTKMSQSHEDSLTSVAWNPDGKRFVTGGQRGQFYQCDLDGNLLDSWEGVRVQCLWCLSDGKTVLASDTHQRIRGYNFEDLTDRNIVQEDHPIMSFTISKNGRLALLNVATQGVHLWDLQDRVLVRKYQGVTQGFYTIHSCFGGHNEDFIASGSEDHKVYIWHKRSELPIAELTGHTRTVNCVSWNPQIPSMMASASDDGTVRIWGPAPFIDHQNIEEECSSMDS”, the protein production was “failed”.
In the case of “MSEANSGPGRVTREQRGHLFLIGLDRAGKRNAFDSAMLADLALAMGEYERSEESRCAVLFAHGEHFTAGLDLMELAPKLAASGFRYPDGGVDPWGVVQPRRSKPLVVAVQGTCWTAGIELMLNADIAVAARGTRFAHLEVLRGIPPLGGSTVRFPRAAGWTDAMRYILTGDEFDADEALRMRLLTEVVEPGEELARALEYAERIARAAPLAVRAALQSAFQGRDEGDDAALSRVNESLAALIGSEDVREGVLAMV”, the protein production is reported as “not failed”.
With “MQRYETTSVQNITQQYVHWFRHSAPYINAHRNKTLVLMFGGEAVQHPNFQHIIHDIALLHSLGIRLILVHGARPQINQNLQEKQIETPIHLHRRVTTRESLACVMNAVGSIRLEIEALLSMGLANSPMFGARIDVVSGNFVTAKPYGIRDGVDFQLTGEVRAIDTDAIQRHLDNHNIVVLGPTGYSTTGEVFNLLAEEVATKTATALHADKLIFLGKKQGLLSDQGKLLRELTPQQLEPYIKHFQQLDHEMALHLQGAQTASLSGVHRVHLISYAYDGALIEELFTRDGIGTMITDAHYEDVRTATIQDVGGLINLLRPLEEEGILVYRSRERLESEISQFAVIERDGMILACAALYPIPTAKNEIRSAEIACVAVDPAYRKSNRGSQILHFLEEKARQEGILQLFVLTTRTAHWFLEHGFQTASVDDLPSARQELYNYQRNSLVFKKILM” the protein production was “failed”.
With “MRSVTVSGFLTLIISGIMLIPSPAYSKIDTTLNTSSFIGAYLAGRVANHENKTDLAIKYFKKALTYKPENIETQVEMLEAMLFSGAFKEAVKQAQKLKKQGITNPFVSLTLSIESLIKKDYNKAKILLQLKTLPAANNPIPELIGAWATFGSGYQSQAITHLQKIQGPAWYKLFINYHLALMCDLAGHKQNAQKYFTQALNTQQATLIAPNTYEHIIIAYASFQLRSKMRIQALQTLKHGEQMLPGREIFKNIREKIEKGASLERLIKTPQQGTGEVLYNFGTTLNHKNSQRIARIFTQLSLILSPENDAIMFHLANISAKVNDLNQAIKLYRSLPQSSPYYRVGQLQLAFILANNNNHSEAIKLLTSLKKKNPNDRHILITLSALYMQDNKFTEATKTLDRAIAQITNFQQDDWKLFYQRGIAFERLQQWSKAENDLRKALDFFPNQPQVLNYLGYSLVERGEKLEESLHMLQKASTLQPQNSHILDSLGWAYYKLKQYNQAVQILGNAVRLQPEDPTLNDHLGDVYWRVGRKREAMFQWNHAIDGEAKNSKEIQEKLKFGLQ” the protein production was “failed”.
